Measurements reported in paper doi:10.1101/2020.06.22.20137695.

Legend:
[1] = molecular target: HCoV-HKU1 spike protein, recombinant soluble ectodomain trimer (HCoV-HKU1) (UniProt Q0ZME7); assay: SEC
[2] = molecular target: HCoV-OC43 spike protein, recombinant soluble ectodomain trimer (HCoV-OC43 | bacteriophage T4) (UniProt P36334); assay: SEC

HCoV-HKU1 spike protein, recombinant soluble ectodomain trimer (from UniProt Q0ZME7 13-1295) (domain or fragment)
stoichiometry N [1]: 3

HCoV-OC43 spike protein, recombinant soluble ectodomain trimer (from UniProt P36334 14-1297) (domain or fragment)
stoichiometry N [2]: 3
